# Source: patent US7585967 (VASGENE THERAPEUTICS, dated 2009)
# T1: B4ECv3NT protein (soluble extracellular domain of human EphB4 without epitope or purification tags) (human, UniProt P54760 16-537)
# T1 construct: also called EphB4ECnt; B4EC-NT
# T1 sequence: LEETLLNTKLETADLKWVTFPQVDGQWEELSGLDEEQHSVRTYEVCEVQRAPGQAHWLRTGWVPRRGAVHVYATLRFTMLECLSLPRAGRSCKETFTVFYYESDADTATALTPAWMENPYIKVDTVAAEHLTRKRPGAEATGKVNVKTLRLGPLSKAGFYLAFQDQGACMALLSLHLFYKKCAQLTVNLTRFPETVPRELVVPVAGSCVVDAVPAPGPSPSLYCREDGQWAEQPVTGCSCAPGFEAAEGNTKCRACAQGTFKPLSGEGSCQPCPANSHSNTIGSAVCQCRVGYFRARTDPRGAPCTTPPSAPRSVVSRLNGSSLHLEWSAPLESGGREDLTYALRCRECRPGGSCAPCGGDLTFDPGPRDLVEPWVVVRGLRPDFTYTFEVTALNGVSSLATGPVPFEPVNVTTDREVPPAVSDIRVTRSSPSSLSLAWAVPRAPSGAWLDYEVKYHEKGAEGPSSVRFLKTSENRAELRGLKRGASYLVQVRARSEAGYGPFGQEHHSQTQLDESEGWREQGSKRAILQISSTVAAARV
# T2: B4ECv3 protein (soluble extracellular domain of human EphB4 with V5 epitope tag and 6xHis tag on its … (human, UniProt P54760 16-537))
# T2 construct: also called EphB4ECv3; hB4ECv3
# T2 sequence: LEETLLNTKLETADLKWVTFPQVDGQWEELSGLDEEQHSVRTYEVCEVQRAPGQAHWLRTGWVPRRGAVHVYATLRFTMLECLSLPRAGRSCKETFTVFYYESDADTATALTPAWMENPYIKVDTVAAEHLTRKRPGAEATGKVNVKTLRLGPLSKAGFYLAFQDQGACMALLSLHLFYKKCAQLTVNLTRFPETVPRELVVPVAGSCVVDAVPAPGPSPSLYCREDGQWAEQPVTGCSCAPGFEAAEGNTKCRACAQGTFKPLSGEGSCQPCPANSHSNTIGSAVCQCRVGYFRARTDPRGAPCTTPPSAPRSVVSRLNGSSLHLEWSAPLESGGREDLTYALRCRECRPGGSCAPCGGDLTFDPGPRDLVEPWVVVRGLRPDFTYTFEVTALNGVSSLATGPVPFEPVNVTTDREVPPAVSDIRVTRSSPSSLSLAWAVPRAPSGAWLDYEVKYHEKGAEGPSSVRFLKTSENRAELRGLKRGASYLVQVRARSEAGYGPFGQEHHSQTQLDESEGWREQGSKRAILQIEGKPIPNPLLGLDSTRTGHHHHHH
# T3: B4-GCF1 protein (globular, Cys-rich and first FNIII domain of human EphB4, C-terminally 6xHis tagged) (human, UniProt P54760 16-427)
# T3 construct: Range is numbered on mature EphB4
# T3 sequence: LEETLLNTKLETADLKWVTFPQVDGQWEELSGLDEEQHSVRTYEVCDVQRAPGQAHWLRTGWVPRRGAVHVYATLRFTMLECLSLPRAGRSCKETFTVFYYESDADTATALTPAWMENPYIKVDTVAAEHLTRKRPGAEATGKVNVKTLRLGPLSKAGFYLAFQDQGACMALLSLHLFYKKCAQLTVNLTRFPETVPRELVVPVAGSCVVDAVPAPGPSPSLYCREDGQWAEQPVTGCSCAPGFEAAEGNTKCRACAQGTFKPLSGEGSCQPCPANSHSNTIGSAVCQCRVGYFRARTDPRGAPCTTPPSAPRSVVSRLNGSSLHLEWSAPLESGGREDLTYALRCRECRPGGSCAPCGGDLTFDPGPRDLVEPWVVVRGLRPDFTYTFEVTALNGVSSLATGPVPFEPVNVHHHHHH
# T4: B4-GC protein (globular domain and Cys-rich domain of human EphB4, C-terminally 6xHis tagged) (human, UniProt P54760 16-327)
# T4 construct: Range is numbered on mature EphB4
# T4 sequence: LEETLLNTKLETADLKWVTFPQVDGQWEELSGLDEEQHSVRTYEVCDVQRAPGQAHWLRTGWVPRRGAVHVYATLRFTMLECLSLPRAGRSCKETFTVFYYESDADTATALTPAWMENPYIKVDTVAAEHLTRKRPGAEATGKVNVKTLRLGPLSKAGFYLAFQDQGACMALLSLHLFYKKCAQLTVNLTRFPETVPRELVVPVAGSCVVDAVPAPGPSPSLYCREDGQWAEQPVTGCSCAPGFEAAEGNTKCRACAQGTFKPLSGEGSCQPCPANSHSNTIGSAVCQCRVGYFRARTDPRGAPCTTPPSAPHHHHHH
# T5: B4-GCF2 protein (complete extracellular part of human EphB4, C-terminally 6xHis tagged) (human, UniProt P54760 16-537)
# T5 construct: Range 1-522 is numbered on mature EphB4 (after leader removal)
# T5 sequence: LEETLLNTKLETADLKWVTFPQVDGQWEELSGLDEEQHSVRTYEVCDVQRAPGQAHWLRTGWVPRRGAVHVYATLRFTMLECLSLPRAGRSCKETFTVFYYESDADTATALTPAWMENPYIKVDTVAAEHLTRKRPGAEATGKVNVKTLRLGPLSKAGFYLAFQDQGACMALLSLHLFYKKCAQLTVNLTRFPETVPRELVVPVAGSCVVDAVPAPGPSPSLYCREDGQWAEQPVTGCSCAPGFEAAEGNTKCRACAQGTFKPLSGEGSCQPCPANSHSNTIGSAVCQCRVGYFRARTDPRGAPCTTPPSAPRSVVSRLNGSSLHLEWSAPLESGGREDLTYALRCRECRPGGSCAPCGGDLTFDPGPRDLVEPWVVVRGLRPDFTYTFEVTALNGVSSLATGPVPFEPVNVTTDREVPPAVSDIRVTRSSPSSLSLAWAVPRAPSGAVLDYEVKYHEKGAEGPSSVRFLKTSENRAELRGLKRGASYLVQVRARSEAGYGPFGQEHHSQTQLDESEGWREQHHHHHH
# T6: Mouse EphB4/Fc (R & D Systems) (mouse, UniProt P54761 16-539)
# T6 construct: Bought; also called EphB4/Fc fusion protein; not shown: Fc; detected with anti-human Fc / anti-human IgG-FITC
# T6 sequence (looked up): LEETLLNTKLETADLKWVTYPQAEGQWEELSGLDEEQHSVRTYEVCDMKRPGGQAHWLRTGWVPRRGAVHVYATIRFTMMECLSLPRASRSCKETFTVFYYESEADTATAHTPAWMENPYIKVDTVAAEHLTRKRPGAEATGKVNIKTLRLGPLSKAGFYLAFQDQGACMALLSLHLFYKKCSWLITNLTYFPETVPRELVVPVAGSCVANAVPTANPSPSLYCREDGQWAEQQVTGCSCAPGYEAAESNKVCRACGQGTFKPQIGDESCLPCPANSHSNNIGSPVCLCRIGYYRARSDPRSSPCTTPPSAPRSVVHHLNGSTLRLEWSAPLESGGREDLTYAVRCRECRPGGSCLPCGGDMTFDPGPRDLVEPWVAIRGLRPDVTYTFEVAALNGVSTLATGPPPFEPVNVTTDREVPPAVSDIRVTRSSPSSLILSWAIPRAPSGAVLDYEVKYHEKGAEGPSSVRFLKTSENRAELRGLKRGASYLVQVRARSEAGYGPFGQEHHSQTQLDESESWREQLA
# Tests used:
# [1] = target: T1, B4ECv3NT protein (soluble extracellular …); test: biochemical assays with B2EC-AP reagent
# [2] = target: T2, B4ECv3 protein (soluble extracellular …); test: B4ECv3 on Ni-NTA-agarose, B2-AP at 50 nM, PNPP colour
# Procedure: 10 µl of Ni-NTA-Agarose were incubated in microcentrifuge tubes with 50 µl of indicated amount of B4ECv3 diluted in binding buffer BB (20 mM Tris-HCl, 0.15 M NaCl, 0.1% bovine serum albumin pH 8) After incubation for 30 min on shaking platform, Ni-NTA beads were washed twice with 1.4 ml of BB, followed by application of 50 µl of B2-AP in the final concentration of 50 nM. Binding was performed for 30 min on shaking platform, and then tubes were centrifuged and washed one time with 1.4 ml of BB. Amount of precipitated AP was measured […] after application of PNPP.
# [3] = target: T3, B4-GCF1 protein (globular, Cys-rich and …); test: Ephrin B2-AP on B4 proteins immobilized on Ni2+-resin or on nitrocellulose membrane
# Procedure: (§1) To confirm ability of the purified recombinant proteins to bind Ephrin B2, they were tested in an in vitro binding assay. As expected, GC, GCF1 and GCF2, but not CF2 are binding the cognate ligand Ephrin B2 as confirmed by interaction between Ephrin B2-alkaline phosphatase (Ephrin B2-AP) fusion protein with the B4 proteins immobilized on Ni^2+-resin or on nitrocellulose membrane (FIG. 17).
# (§2) To test ligand binding properties of the proteins, 10 µl of Ni-NTA-Agarose (Qiagen) were incubated in microcentrifuge tubes with 10-500 ng sample of a B4-ECD protein diluted in 0.5 ml of binding buffer BB (20 mM Tris-HCl, 0.15 M NaCl, 0.1% bovine serum albumin, pH 8). After incubation for 30 min on shaking platform, Ni-NTA beads were washed twice with 1.4 ml of BB, followed by addition of B2-AP fusion protein at concentration of 50 nM. Binding was performed for 30 min on a shaking platform. Tubes were centrifuged and washed once with 1.4 ml of BB. Amount of precipitated AP was measured colorimetrically at 420 nm after application of p-nitrophenyl phosphate (PNPP) and incubation for 5-30 min.
# [4] = target: T4, B4-GC protein (globular domain and …); test: as above
# Procedure: as §1, §2
# [5] = target: T5, B4-GCF2 protein (complete extracellular …); test: as above
# Procedure: as §1, §2
# [6] = target: T6, Mouse EphB4/Fc (R & D Systems); test: immunofluorescence on frozen KS sections, FITC-labeled anti-human Fc antibody
# Description: (A) In situ hybridization with antisense probes for ephrin B2 and EphB4 with corresponding H&E stained section to show tumor architecture. Dark blue color in the ISH indicates positive reaction for ephrin B2. No signal for EphB4 was detected in the Kaposi's sarcoma biopsy. For contrast, ISH signal for EphB4 is strong in squamous cell carcinoma tumor cells. Ephrin B2 was also detected in KS using EphB4-AP fusion protein (bottom left). (B) Detection of ephrin B2 with EphB4/Fc fusion protein. Adjacent sections were stained with H&E (left) to show tumor architecture, black rectangle indicates the area shown in the EphB4/Fc treated section (middle) detected with FITC-labeled anti-human Fc antibody as described in the methods section. As a control an adjacent section was treated with human Fc fragment (right). Specific signal arising from EphB4/Fc binding to the section is seen only in areas of tumor cells. (C) Co-expression of ephrin B2 and the HHV8 latency protein LANA1. […] Coexpression is seen as yellow color.
# Immunofluorescence detection of EphrinB2 with EPHB4-Fc was done as follows. Frozen sections fixed in 4% paraformaldehyde and blocked with 20% FBS were incubated with 5 μg/ml EphB4/Fc (R&D Systems) for 1 h at RT. Sections were then incubated with 10 μg/ml rabbit anti-human IgG-FITC in PBS (Jackson ImmunoResearch Laboratories West Grove, Pa.) at RT for 1 hour. […]
binding result [1],binding result [2],binding result [3],binding result [4],binding result [5],binding result [6],Binder
binds,binds,binds,binds,binds,–,"Ephrin B2-alkaline phosphatase (Ephrin B2-AP) fusion protein (protein fusion of Ephrin B2 ectodomain with placental alkaline phosphatase) (ligand, also called B2EC-AP; B2ECAP; not shown: placental alkaline phosphatase from the pAPTag2 vector (GenHunter)) IVLEPIYWNSSNSKFLPGQGLVLYPQIGDKLDIICPKVDSKTVGQYEYYKVYMVDKDQADRCTIKKENTPLLNCAKPDQDIKFTIKFQEFSPNLWGLEFQKNKDYYIISTSNGSLEGLDNQEGGVCQTRAMKILMKVGQDASSAGSTRNKDPTRRPELEAGTNGRSSTTSPFVKPNPGSSTDGNSAGHSGNNILGSEVALFA"
–,–,–,–,–,binds,ephrin B2 on tumor cells of human Kaposi's sarcoma biopsy sections (ligand) IVLEPIYWNSSNSKFLPGQGLVLYPQIGDKLDIICPKVDSKTVGQYEYYKVYMVDKDQADRCTIKKENTPLLNCAKPDQDIKFTIKFQEFSPNLWGLEFQKNKDYYIISTSNGSLEGLDNQEGGVCQTRAMKILMKVGQDASSAGSTRNKDPTRRPELEAGTNGRSSTTSPFVKPNPGSSTDGNSAGHSGNNILGSEVALFAGIASGCIIFIVIIITLVVLLLKYRRRHRKHSPQHTTTLSLSTLATPKRSGNNNGSEPSDIIIPLRTADSVFCPHYEKVSGDYGHPVYIVQEMPPQSPANIYYKV
